In US20210063414A1, “METHODS FOR PREVENTING AND/OR TREATING BONE LOSS CONDITIONS BY MODULATING IRISIN” (Dana-Farber Cancer Institute, Inc., priority 2018, published 2021):

Tests used:
[1] = molecular target: T1, MLO-Y4 cell surface proteins (Mus musculus, UniProt P08249); test: Crosslinking/co-immunoprecipitation/mass spectrometry (TMT quantitative proteomics) to identify irisin receptors; format: binding; conditions: co-precipitated protein Mdh2 (MDHM_MOUSE)
T1 construct: endogenous in cells; host or cells: MLO-Y4
T1 sequence (P08249 25-338): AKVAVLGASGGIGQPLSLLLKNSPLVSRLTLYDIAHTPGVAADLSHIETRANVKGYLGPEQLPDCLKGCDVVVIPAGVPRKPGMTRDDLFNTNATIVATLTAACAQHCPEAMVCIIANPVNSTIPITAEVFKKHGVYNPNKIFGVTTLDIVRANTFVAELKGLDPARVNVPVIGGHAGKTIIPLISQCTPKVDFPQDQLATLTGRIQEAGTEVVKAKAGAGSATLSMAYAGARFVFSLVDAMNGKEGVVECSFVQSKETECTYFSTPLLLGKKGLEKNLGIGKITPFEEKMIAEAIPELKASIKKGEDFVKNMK
In short: (§1)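 Mouse MLO-Y4 cells were switched to serum-free FreeStyle medium for 4 h, chilled, then exposed to 10 nM His-tagged irisin (or adipsin as control) for 20 min. Cells were crosslinked with 1.5 mM DTSSP (30 min, ice), and bound proteins were pulled down on Ni-NTA and eluted with 250 mM imidazole. Eluates were separated by SDS-PAGE, trypsin-digested in gel, TMT 6-plex labelled and quantified by MS3-based LC-MS/MS on an Orbitrap Fusion Lumos.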

[2] = molecular target: T2, MLO-Y4 cell surface proteins (Mus musculus, UniProt Q9Z2I9); test: as above; format: binding; conditions: co-precipitated protein Sucla2 (SUCB1_MOUSE)
T2 construct: endogenous in cells; host or cells: MLO-Y4
T2 sequence (Q9Z2I9 54-463): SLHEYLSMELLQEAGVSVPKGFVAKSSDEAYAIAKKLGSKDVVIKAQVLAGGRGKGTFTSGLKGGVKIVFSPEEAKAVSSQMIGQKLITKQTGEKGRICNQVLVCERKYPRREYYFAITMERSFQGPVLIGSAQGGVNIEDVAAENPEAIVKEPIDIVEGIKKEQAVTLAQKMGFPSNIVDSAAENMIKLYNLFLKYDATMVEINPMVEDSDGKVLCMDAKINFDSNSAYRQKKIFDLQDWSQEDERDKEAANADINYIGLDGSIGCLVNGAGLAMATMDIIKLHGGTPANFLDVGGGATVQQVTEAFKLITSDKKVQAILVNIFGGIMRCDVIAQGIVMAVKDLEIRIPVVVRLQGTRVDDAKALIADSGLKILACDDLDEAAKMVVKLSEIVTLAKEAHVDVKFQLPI
In short: as §1

TMT signal-to-noise ratio [1]: 2557.03
TMT signal-to-noise ratio [2]: 50.8753
Substance: adipsin
